Source: publication PMC4695161
One block for each substance: values may come before it.

Key:
[1] = target: C-terminal AZ peptide AZ(100-228) (human) (UniProt P54368); test: AUC; sedimentation velocity; AZ or AZ peptide at a fixed concentration, three concentrations of CCND1; 30 mM Tris-HCl pH 7.4, 50 mM NaCl; global fit (SEDPHAT) to A+B↔AB hetero-association
[2] = target: antizyme inhibitor (Homo sapiens) (UniProt O14977); test: analytical ultracentrifugation; conditions: cited from earlier work
Chain of antizyme inhibitor (Homo sapiens) (O14977 whole entry): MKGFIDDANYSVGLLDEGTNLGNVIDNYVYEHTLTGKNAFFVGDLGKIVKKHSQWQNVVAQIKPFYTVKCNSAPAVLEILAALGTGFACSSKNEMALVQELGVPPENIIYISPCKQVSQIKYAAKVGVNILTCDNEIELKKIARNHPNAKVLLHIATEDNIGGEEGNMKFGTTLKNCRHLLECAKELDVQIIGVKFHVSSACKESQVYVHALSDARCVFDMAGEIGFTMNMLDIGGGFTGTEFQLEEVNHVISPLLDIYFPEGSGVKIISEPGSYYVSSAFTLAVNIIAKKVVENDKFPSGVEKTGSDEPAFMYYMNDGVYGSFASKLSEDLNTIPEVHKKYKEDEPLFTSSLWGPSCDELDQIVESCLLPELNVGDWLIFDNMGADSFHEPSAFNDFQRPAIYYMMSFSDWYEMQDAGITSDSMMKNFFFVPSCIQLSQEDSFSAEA

[3] = target: ornithine decarboxylase (Homo sapiens) (UniProt P11926); test: analytical ultracentrifugation; conditions: cited from earlier work
Chain of ornithine decarboxylase (Homo sapiens) (P11926 whole entry): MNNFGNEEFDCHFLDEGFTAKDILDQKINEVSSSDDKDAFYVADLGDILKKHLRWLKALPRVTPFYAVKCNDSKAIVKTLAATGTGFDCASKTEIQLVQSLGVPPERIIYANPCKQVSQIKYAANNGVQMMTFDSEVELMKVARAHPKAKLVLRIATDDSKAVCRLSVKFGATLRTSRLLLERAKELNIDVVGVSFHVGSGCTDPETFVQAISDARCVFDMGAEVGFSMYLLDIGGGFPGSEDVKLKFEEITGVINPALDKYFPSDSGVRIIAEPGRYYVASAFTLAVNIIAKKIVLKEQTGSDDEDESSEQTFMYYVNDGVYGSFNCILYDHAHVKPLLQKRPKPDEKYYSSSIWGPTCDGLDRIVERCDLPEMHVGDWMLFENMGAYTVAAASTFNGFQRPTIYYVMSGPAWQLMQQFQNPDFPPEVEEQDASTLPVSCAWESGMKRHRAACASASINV

[4] = target: human cyclin D1 (CCND1) (human) (UniProt P24385); test: AUC; sedimentation velocity of CCND1 alone at 0.05, 0.1 and 0.3 mg/ml, 30 mM Tris-HCl pH 7.4, 20°C; global fit (SEDPHAT) to monomer-dimer equilibrium; dimer to monomers

Chain of human cyclin D1 (CCND1) (P24385 whole entry): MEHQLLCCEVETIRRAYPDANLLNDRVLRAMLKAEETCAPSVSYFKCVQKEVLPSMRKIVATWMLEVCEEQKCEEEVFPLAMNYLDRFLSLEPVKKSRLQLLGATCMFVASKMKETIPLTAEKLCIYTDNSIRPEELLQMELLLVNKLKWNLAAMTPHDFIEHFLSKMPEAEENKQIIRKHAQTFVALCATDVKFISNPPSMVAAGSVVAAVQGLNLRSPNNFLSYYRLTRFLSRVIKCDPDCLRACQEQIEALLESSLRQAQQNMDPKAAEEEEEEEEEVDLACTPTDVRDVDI
Chain of antizyme (P54368 whole entry): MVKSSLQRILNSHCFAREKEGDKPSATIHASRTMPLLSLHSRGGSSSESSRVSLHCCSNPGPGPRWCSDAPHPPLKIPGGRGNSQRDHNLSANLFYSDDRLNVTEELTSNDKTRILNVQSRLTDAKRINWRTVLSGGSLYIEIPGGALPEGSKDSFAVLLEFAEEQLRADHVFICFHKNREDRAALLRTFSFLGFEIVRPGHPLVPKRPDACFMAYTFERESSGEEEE
Chain of C-terminal AZ peptide AZ(100-228) (human) (P54368 100-228): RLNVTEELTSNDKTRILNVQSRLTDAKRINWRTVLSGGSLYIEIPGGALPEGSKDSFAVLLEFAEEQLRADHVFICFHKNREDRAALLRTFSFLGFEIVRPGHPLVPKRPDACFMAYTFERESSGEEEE

- Kd [1]: 14.1 µM
Substance: human cyclin D1 (CCND1) (from UniProt P24385 1-295) (natural protein)

Substance: antizyme (from UniProt P54368)
- Kd [2]: 0.02 µM
- Kd [3]: 0.21 µM

- Kd [4]: 3.84 µM
- stoichiometry N [4]: 2
Substance: human cyclin D1 (CCND1) (from UniProt P24385 1-295) (natural protein; other documents disagree on this pair)
